PMC4769699 (Environmental microbiology reports, 2015)

Molecular target: the molecule itself
Experiment: native MS

B1: AmrZ1-66 (AmrZ without the C-terminal domain) (domain or fragment)
chain: MRPLKQATPTYSSRTADKFVVRLPEGMREQIAEVARSHHRSMNSEIIARLEQSLLQEGALQDNLGV
stoichiometry N: 2
